Experimental data reported in patent US8440629B2, “Cyclic receptor-associated protein (RAP) peptides” (Raptor Pharmaceuticals Inc., priority 2007, dated 2013).

T1: rhLRP1 cluster II (Homo sapiens, UniProt Q07954)
T1 construct: rhLRP1 cluster II (aa 786-1165, C-terminal Fc, 1 μg); purchased R&D Systems; host or cells: NS0
T1 sequence (Q07954 786-1165): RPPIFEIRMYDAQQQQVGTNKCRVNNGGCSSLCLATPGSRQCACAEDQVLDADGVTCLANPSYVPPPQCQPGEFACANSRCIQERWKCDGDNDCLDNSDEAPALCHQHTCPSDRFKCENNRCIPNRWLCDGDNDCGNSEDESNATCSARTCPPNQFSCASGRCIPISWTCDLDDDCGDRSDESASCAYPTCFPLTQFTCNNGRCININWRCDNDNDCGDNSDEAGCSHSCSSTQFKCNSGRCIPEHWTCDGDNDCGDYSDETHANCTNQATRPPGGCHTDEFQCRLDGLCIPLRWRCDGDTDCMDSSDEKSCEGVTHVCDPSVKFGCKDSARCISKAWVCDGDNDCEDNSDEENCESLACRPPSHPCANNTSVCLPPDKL

B1: Heptide: cyclic RAP peptide, amino acids 246 to 313, E246C, L247G, G280A, L311A, S312C (SEQ ID NO: 103) (protein)
chain: CGKHFEAKIEKHNHYQKQLEIAHEKLRHAESVGDAERVSRSREKHALLEGRTKELGYTVKKHLQDACG
modifications: chains of the parent or of the whole protein
B2: MegaRAP1 d3 T213S: MegaRAP1 d3 revertant T213S (protein)
chain: LDRLRRVSHQGYSTEAKFEEPRVIDLWDLAQSANLTDKELEAFREELKYFKAKIEAHNHYQKQLEIAHEELRHAESVGDGERVSRSREKHALLEGRTKELGYTVKKHLQDLSGRISRAR
B3: MegaRAP1 d3 Y249H: MegaRAP1 d3 revertant Y249H (protein)
chain: LDRLRRVSHQGYTTEAKFEEPRVIDLWDLAQSANLTDKELEAFREELKHFKAKIEAHNHYQKQLEIAHEELRHAESVGDGERVSRSREKHALLEGRTKELGYTVKKHLQDLSGRISRAR
B4: MegaRAP1 d3 A256K: MegaRAP1 d3 revertant A256K (protein)
chain: LDRLRRVSHQGYTTEAKFEEPRVIDLWDLAQSANLTDKELEAFREELKYFKAKIEKHNHYQKQLEIAHEELRHAESVGDGERVSRSREKHALLEGRTKELGYTVKKHLQDLSGRISRAR
B5: MegaRAP1 d3 K251E: MegaRAP1 d3 revertant K251E (protein)
chain: LDRLRRVSHQGYTTEAKFEEPRVIDLWDLAQSANLTDKELEAFREELKYFEAKIEAHNHYQKQLEIAHEELRHAESVGDGERVSRSREKHALLEGRTKELGYTVKKHLQDLSGRISRAR
B6: MegaRAP1 d3 K217E: MegaRAP1 d3 revertant K217E (protein)
chain: LDRLRRVSHQGYTTEAEFEEPRVIDLWDLAQSANLTDKELEAFREELKYFKAKIEAHNHYQKQLEIAHEELRHAESVGDGERVSRSREKHALLEGRTKELGYTVKKHLQDLSGRISRAR
B7: RAP d3 K270E: RAP d3 forward mutant K270E (protein)
chain: LDRLRRVSHQGYSTEAEFEEPRVIDLWDLAQSANLTDKELEAFREELKHFEAKIEKHNHYQKQLEIAHEELRHAESVGDGERVSRSREKHALLEGRTKELGYTVKKHLQDLSGRISRAR
B8: mRAPcko: mRAPc with the mutations K256A and K270E (peptide)
peptide: GGSGGCGFREELKHFEAKIEAHNHYQKQLEIAHEELRHAESVGDGERVSRSREKHALLEGRTKELGYTVKKHLQDLSGGC
modifications: N-terminal biotin; intramolecular disulfide bond between C241 and C315 (otherwise identical to mRAPc)
notes: mRAPc with the mutations K256A and K270E
B9: mRAp-8c: cyclic RAP peptide, amino acids 246 to 312, E246C, L247G, L311G, S312C (SEQ ID NO: 100) (protein)
chain: CGKHFEAKIEKHNHYQKQLEIAHEKLRHAESVGDGERVSRSREKHALLEGRTKELGYTVKKHLQDGC
modifications: chains of the parent or of the whole protein
B10: mRAP: linearized control of mRAPc, both cysteines substituted with serines (SEQ ID NO: 107) (peptide)
chain: SGFREELKHFEAKIEKHNHYQKQLEIAHEKLRHAESVGDGERVSRSREKHALLEGRTKELGYTVKKHLQDLSGGS

Key:
rhLRP1 cluster II = biological target: T1, rhLRP1 cluster II; experiment: Solid phase binding assay of RAP peptides; conditions: for Kd: calcium-dependent binding, EDTA-subtracted, read-out: Kd / binding affinity
Description: Solid phase binding assays were carried out as follows. Recombinant murine VLDLR ectodomain (aa 1-798, C-terminal hexahistidine, 1 μg) or rhLRP1 cluster II (aa 786-1165, C-terminal Fc, 1 μg) were bound to Nunc Maxisorp™ 96-well plates in TBS pH 8 supplemented with 5 mM CaCl2 (TBSC) overnight at 4° C. Wells were washed with TBSC and then blocked with TBSC containing 2% BSA. Peptides were then incubated with the immobilized receptor at a range of concentrations for 2 hours in the above blocking buffer supplemented with 0.05% Tween-20 at room temperature. Identical binding reactions were done in the presence of 50 mM EDTA to provide a measure of non-specific binding. Control wells contained no added peptide. Additional controls established absence of cross-reactivity between antibodies and receptors. Wells were washed with TBSTC and bound peptides detected with streptavidin-HRP (Pierce) or polyclonal anti-RAP (1:1,000, Raptor Pharmaceutical). Binding of the anti-RAP polyclonal antibody to test peptides was qualitatively confirmed by Western blotting (data not shown). Excess streptavidin-HRP or primary antibody was removed and wells washed before incubation with the secondary antibody, when necessary, HRP-conjugated goat anti rabbit IgG (Bio-Rad). Color was developed using TMB reagents (BioRad). Absorption at 450 nm was measured with a microplate spectrophotometer (Molecular Devices). Absorption obtained in the presence of EDTA was subtracted from absorption obtained in the presence of calcium prior to analysis. Data were plotted and Kd values derived by non-linear regression with the assumption of single-site binding (GraphPad Prism).
The binding affinity of the peptides for LRP1 and VLDLR, another receptor in the LDLR family, was measured as follows. NS0-expressed and purified hrLRP1 or mVLDLR (R&D Systems) were use to coat wells in 96-well plates. Various dilutions of the test peptides were incubated with the immobilized receptors in the presence and absence of 50 mM EDTA in triplicate. Bound peptides were detected with streptavidin-HRP after extensive washing. Binding values measured in the presence of EDTA were subtracted from values measured in the absence of EDTA in order to determine calcium-dependent binding levels. Corrected values were plotted and fitted by non-linear regression with the assumption of a single-binding site using GraphPad Prism.

LRP1 CR3-5 = biological target: T2, LRP1 CR3-5 (Homo sapiens, UniProt Q07954); experiment: Solid phase binding assay; conditions: solid-phase assay
T2 construct: made in house; host or cells: E. coli BL21(DE3) CodonPlus-RIPL, pET30(+)a
Description: (§1) All expression constructs were sequenced to verify insert sequences and the junctions with the expression vector. Each plasmid was then used to transform BL21(DE3) CodonPlus-RIPL™ cells (Stratagene). Expression of the CR proteins was induced in logarithmic growth-phase cells grown in LB supplemented with 34 μg/mL chloramphenicol, 12.5 μg/mL tetracycline and 15 μg/mL kanamycin by addition of 2 mM IPTG, followed by reduction in incubator temperature to 32° C. and incubation for 4 hours with agitation at […]. Cells were pelleted and resuspended, at 3.5% of the initial culture volume in 10 mM Tris-HCl pH 8, 100 mM NaH2PO4, 8M Urea. Resuspended cells were then frozen in liquid nitrogen, rapidly thawed to 37° C. and sonicated for 10 seconds at an amplitude setting of 60 using a Cole-Parmer CP-130 ultrasonic processor connected to a 3 mm probe. This procedure was repeated three times to effect complete lysis of the cells. Lysates were clarified by spinning twice at 10,000×g in a Sorvall RC-5 centrifuge for 20 minutes at 15° C. Ni-NTA columns (Qiagen Superflow™, 1.5 mL packed bed) were used to purify the CR proteins. Briefly, the resin was equilibrated with two column volumes of lysis buffer. The clarified lysate was then supplemented to 20 mM with imidazole and incubated with the equilibrated Ni-NTA resin overnight at 4° C. The flow-through was discarded. Columns were washed once with one column volume of lysis buffer and then three times with one column volume of TBS pH 8 supplemented with 20 mM imidazole. CR-loaded beads were then removed from the column and CR proteins eluted by incubating at room temperature for 30 minutes with one column volume of the same buffer containing 200 mM imidazole. This step was repeated once and the eluates pooled. Eluted CR protein solutions were then supplemented to 2 M urea, 10 mM CaCl2 and 5 mM DTT. Purified, denatured CR protein solutions were transferred to 3,500 MWCO Slide-A-Lyzer™ (Pierce) cassettes and sequentially dialyzed against a 200-fold excess of 50 mM Tris-HCl pH 8.5, 10 mM CaCl2, 1 mM reduced glutathione, 0.5 mM oxidized glutathione at room temperature overnight and then against TBS supplemented with 5 mM CaCl2 at 4° C. overnight. Protein concentrations were determined by Bradford assay and purity confirmed by SDS-PAGE with Coomassie Brilliant Blue staining.
(§2) Purified, refolded CR protein (1 μg) was bound to Nunc Maxisorp™ 96-well plates in TBS pH 8 supplemented with 5 mM CaCl2 (TBSC) overnight at 4° C. Wells were washed with TBSC and then blocked with TBSC containing 2% bovine serum albumin (BSA). RAP ligands were then incubated with the immobilized receptor at a range of concentrations for 2 hours in the above blocking buffer supplemented with 0.05% Tween-20 at room temperature. Control wells contained no added ligand. As an additional control, to determine whether the absence of calcium affected binding, 10 mM EGTA was included in the incubation medium for some samples. Wells were washed with TBSTC and bound ligands detected with polyclonal anti-RAP (BP41/42, 1:1,000, BioMarin). Excess primary antibody was removed and wells washed before incubation with the secondary antibody, HRP-conjugated goat anti rabbit IgG (Bio-Rad). After washing, TMB substrate solutions (Bio-Rad) were added to detect HRP. Color development was stopped with 1N HCl. Absorption at 450 nm was measured with a microplate spectrophotometer (Molecular Devices). Data were plotted and Kd values derived by non-linear regression with the assumption of single-site binding (GraphPad Prism).
From the large number of CR pairs with unique combinations of amino acids at A, C, A′ and C′ within the calcium-binding loop of each CR, CR pairs or triplets were selected to test their binding to RAP d3 (FIG. 2). An additional pair derived from the FDC-8D6 protein was tested, designated 8D6 CR12, having the sequence ([…]) (SEQ ID NO: 91). […]

LRP2 CR89 = biological target: T3, LRP2 CR89 (Homo sapiens, UniProt P98164); experiment: Solid phase binding assay; conditions: solid-phase assay
T3 construct: two CR pairs from LRP2 (CR89, CR3435); made in house; host or cells: E. coli BL21(DE3) CodonPlus-RIPL, pET30(+)a
T3 sequence (P98164 1022-1105 limits assumed): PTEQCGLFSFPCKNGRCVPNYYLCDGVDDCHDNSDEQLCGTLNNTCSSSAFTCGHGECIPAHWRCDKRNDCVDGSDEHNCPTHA
Description: as §1, §2

Molecule | Kd (rhLRP1 cluster II) [nM] | binding to LRP1 CR3-5 (in words) (LRP1 CR3-5) | binding to LRP2 CR89 (in words) (LRP2 CR89) | affinity (in words) (rhLRP1 cluster II)
B1 | ~3.5 | – | – | –
B2 | – | unable to detectably bind | slightly improved affinities | –
B3 | – | failed to bind | failed to bind | –
B4 | – | failed to bind | failed to bind | –
B5 | – | failed to bind | failed to bind | –
B6 | – | unable to detectably bind | slightly improved affinities | –
B7 | – | failed to measurably bind | – | –
B8 | – | – | – | no measurable affinity
B9 | 4 to 6 | – | – | –
B10 | – | – | – | no measurable affinity
